From US20150105324A1 (INDIANA UNIVERSITY RESEARCH AND TECHNOLOGY, published 2015)

Molecular target: biotinylated PSD95 (PDZ domains 1-3, residues 1-435 of human PSD95, fused to a biotin acceptor peptide) (human, UniProt P78352 1-435, biotin at its internal biotin acceptor site)
Sequence (P78352 1-435): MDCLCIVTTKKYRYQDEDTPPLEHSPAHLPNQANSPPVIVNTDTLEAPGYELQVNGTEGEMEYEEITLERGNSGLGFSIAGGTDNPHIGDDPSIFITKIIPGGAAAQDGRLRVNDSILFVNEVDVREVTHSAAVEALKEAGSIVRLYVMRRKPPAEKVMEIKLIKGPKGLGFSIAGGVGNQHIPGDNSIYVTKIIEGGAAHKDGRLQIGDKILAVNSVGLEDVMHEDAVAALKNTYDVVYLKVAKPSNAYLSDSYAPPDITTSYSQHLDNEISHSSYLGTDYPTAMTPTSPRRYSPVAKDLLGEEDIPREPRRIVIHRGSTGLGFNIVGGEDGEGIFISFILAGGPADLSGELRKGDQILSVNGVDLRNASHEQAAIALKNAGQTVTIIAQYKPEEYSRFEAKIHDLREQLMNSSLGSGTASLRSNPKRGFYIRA

B1: Tat-nNOS (1-299) fusion protein (other)
chain: YGRKKRRQRRRMEDHMFGVQQIQPNVISVRLFKRKVGGLGFLVKERVSKPPVIISDLIRGGAAEQSGLIQAGDIILAVNGRPLVDLSYDSALEVLRGIASETHVVLILRGPEGFTTHLETTFTGDGTPKTIRVTQPLGPPTKAVDLSHQPPAGKEQPLAVDGASGPGNGPQHAYDDGQEAGSLPHANGLAPRPPGQDPAKKATRVSLQGRGENNELLKEIEPVLSLLTSGSRGVKGGAPAKAEMKDMGIQVDRDLDGKSHKPLPLGVENDRVFNDLWGKGNVPVVLNNPYSEKEQPPTSGKQSPTKNGSP
IC50: 300 nM
